Measurements: US20050227220A1, “Compositions and Methods for Evaluating and Designing Nuclear Receptor Ligands that Modulate Co-Regulator Affinity” (priority 2002, published 2005)
No end group written: not given here. fluorescein = fluorescein: fluorescein label attached at the N-terminus of the peptide

B1: RXRα ligand binding domain (amino acids 225-462) (receptor, UniProt P19793 225-462, looked up)
chain: SANEDMPVERILEAELAVEPKTETYVEANMGLNPSSPNDPVTNICQAADKQLFTLVEWAKRIPHFSELPLDDQVILLRAGWNELLIASFSHRSIAVKDGILLATGLHVHRNSAHSAGVGAIFDRVLTELVSKMRDMQMDKTELGCLRAIVLFNPDSKGLSNPAEVEALREKVYASLEAYCKHKYPEQPGRFAKLLLRLPALRSIGLKCLEHLFFFKLIGDTPIDTFLMEMLEAPHQMT
notes: range 225-462; Biotinylated for FRET; also called RXRα LBD; not shown: His-tag
B2: human PPARδ ligand binding domain (amino acids 139-441) (receptor)
chain: MKKGHHHHHHGSHNAIRFGRMPEAEKRKLVAGLTANEGSQYNPQVADLKAFSKHIYNAYLKNFNMTKKKARSILTGKASHTAPFVIHDIETLWQAEKGLVWKQLVNGLPPYKEISVHVFYRCQCTTVETVRELTEFAKSIPSFSSLFLNDQVTLLKYGVHEAIFAMLASIVNKDGLLVANGSGFVTREFLRSLRKPFSDIIEPKFEFAVKFNALELDDSDLALFIAAIILCGDRPGLMNVPRVEAIQDTILRALEFHLQANHPDAQYLFPKLLQKMADLRQLVTEHAQMMQRIKKTETETSLHPLLQEIYKDMY
modifications: Biotinylated (site not stated) in the FRET assays; unlabelled in fluorescence polarization and SPR.
notes: placed at the N-terminus here; Biotinylated for FRET; also called PPARδ LBD
B3: Fluoroscein-NCOR ID-C peptide (NCoR amino acids 2251-2275) (peptide)
peptide: fluorescein-GHSFADPASNLGLEDIIRKALMGSF
notes: also called NCOR peptide; NCoR 2251-2275
B4: VP16-human PPARα (full length) (other)
chain: LSTAPPTDVSLGDELHLDGEDVAMAHADALDDFDLDMLGDGDSPGPGFTPHDSAPYGALDMADFEFEQMFTDALGIDEYGGMVDTESPLCPLSPLEAGDLESPLSEEFLQEMGNIQEISQSIGEDSSGSFGFTEYQYLGSCPGSDGSVITDTLSPASSPSSVTYPVVPGSVDESPSGALNIECRICGDKASGYHYGVHACEGCKGFFRRTIRLKLVYDKCDRSCKIQKKNRNKCQYCRFHKCLSVGMSHNAIRFGRMPRSEKAKLKAEILTCEHDIEDSETADLKSLAKRIYEAYLKNFNMNKVKARVILSGKASNNPPFVIHDMETLCMAEKTLVAKLVANGIQNKEAEVRIFHCCQCTSVETVTELTEFAKAIPGFANLDLNDQVTLLKYGVYEAIFAMLSSVMNKDGMLVAYGNGFITREFLKSLRKPFCDIMEPKFDFAMKFNALELDDSDISLFVAAIICCGDRPGLLNVGHIEKMQEGIVHVLRLHLQSNHPDDIFLFPKLLQKMADLRQLVTEHAQLVQIIKKTESDAALHPLLQEIYRDMY
notes: also called VP16 full length PPARα
B5: human PPARγ ligand binding domain (amino acids 206-477) (receptor)
chain: MKKGHHHHHHGPESADLRALAKHLYDSYIKSFPLTKAKARAILTGKTTDKSPFVIYDMNSLMMGEDKIKFKHITPLQEQSKEVAIRIFQGCQFRSVEAVQEITEYAKSIPGFVNLDLNDQVTLLKYGVHEIIYTMLASLMNKDGVLISEGQGFMTREFLKSLRKPFGDFMEPKFEFAVKFNALELDDSDLAIFIAVIILSGDRPGLLNVKPIEDIQDNLLQALELQLKLNHPESSQLFAKLLQKMTDLRQIVTEHVQLLQVIKKTETDMSLHPLLQEIYKDLY
notes: range 206-477; placed at the N-terminus here; Biotinylated for FRET; also called PPARγ LBD

Assays:
[1] = molecular target: B5; assay: FRET, biotinylated PPAR LBD and RXRα LBD on labelled streptavidin
[2] = molecular target: T1, human PPARα ligand binding domain (amino acids 192-468) (human, UniProt Q07869 192-468); assay: as above
T1 construct: range 192-468; placed at the N-terminus here; Biotinylated for FRET; also called PPARα LBD
T1 sequence: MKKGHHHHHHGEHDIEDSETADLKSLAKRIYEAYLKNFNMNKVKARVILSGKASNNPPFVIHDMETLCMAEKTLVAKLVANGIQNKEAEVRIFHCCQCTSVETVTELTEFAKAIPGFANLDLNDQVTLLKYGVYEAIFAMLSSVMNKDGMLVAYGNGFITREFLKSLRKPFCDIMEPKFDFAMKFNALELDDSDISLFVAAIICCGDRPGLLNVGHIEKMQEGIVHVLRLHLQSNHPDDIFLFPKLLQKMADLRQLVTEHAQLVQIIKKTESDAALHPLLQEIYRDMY

[3] = molecular target: B2; assay: as above
[4] = molecular target: B3; assay: fluorescence polarization, with GW1929
[5] = molecular target: T2, biotin-NCOR ID-C peptide (NCoR amino acids 2251-2275) (N-terminal biotin); assay: FRET, with GW7845
T2 construct: also called NCOR-derived co-repressor peptide
T2 peptide: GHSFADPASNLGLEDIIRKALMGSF

[6] = molecular target: T2, biotin-NCOR ID-C peptide (NCoR amino …); assay: FRET, with GW1929
[7] = molecular target: T3, TRβ ligand binding domain (UniProt P10828 202-461, limits assumed); assay: fluorescence polarization, 10 nM fluorescein peptide, LBD titrated, no ligand
T3 construct: also called Thyroid Receptor LBD; TRβ LBD
T3 sequence (looked up): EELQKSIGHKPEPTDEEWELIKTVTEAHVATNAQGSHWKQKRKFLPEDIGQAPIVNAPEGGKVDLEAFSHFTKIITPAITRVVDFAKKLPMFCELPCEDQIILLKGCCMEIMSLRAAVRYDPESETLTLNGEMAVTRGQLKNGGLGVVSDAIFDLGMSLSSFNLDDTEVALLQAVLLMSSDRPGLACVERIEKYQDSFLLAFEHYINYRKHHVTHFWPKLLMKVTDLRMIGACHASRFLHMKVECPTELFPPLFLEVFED

[8] = molecular target: T4, ERβ ligand binding domain (amino acids 257-530) (UniProt Q92731 257-530); assay: as above
T4 construct: range 257-530; not shown: His-tag

[9] = molecular target: B5; assay: as above
[10] = molecular target: T1, human PPARα ligand binding domain …; assay: as above
[11] = molecular target: B1; assay: as above
[12] = molecular target: T5, RARα ligand binding domain (amino acids 146-432) (UniProt P10276 146-432); assay: as above
T5 construct: range 146-432; not shown: His-tag
T5 sequence (looked up): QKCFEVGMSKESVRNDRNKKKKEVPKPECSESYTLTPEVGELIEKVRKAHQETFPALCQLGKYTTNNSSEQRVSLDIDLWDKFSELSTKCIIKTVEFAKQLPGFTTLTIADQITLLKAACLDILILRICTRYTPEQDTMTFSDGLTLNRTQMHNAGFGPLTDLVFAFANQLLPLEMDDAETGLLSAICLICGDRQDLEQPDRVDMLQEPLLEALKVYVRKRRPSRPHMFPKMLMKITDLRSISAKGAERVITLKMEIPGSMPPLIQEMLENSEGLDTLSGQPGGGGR

[13] = molecular target: B2; assay: as above
[14] = molecular target: B5; assay: fluorescence polarization, apparent affinity, with GW1929
[15] = molecular target: B2; assay: as above
[16] = molecular target: T3, TRβ ligand binding domain; assay: fluorescence polarization, apparent affinity, no ligand
[17] = molecular target: B5; assay: as above
[18] = molecular target: B5; assay: fluorescence polarization, apparent affinity, with rosiglitazone
[19] = molecular target: B2; assay: as above
[20] = molecular target: T3, TRβ ligand binding domain; assay: fluorescence polarization, apparent affinity, with T3
[21] = molecular target: T6, GAL4-NcoR (1944-end) (UniProt P04386 1-147; O75376 1944-2440); assay: mammalian two-hybrid in CV-1 cells
T6 construct: range 1-147;range 1944-end; Two-hybrid construct; also called larger fragment of NCoR (1944-end)

[22] = molecular target: T7, TRAP220 peptide (amino acids 575-599) (not fully specified; printed as N-terminal biotin in Example 1; label in the polarization assay not specified); assay: fluorescence polarization, with GW1929
T7 construct: also called TRAP220 575-599
T7 peptide: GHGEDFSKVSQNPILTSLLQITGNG

[23] = molecular target: B3; assay: fluorescence polarization, with rosiglitazone
[24] = molecular target: T7, TRAP220 peptide (amino acids 575-599); assay: fluorescence polarization, with rosiglitazone

T4 sequence (Q92731 257-530 limits assumed): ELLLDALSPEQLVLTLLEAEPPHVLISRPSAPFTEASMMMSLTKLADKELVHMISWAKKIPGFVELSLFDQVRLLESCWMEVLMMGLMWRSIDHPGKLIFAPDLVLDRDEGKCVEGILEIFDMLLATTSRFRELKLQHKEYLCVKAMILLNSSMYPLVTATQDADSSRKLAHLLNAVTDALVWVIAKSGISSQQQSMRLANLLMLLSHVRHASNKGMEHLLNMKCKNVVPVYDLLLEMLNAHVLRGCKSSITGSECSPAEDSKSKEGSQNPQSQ

B1: binds [1]; binds [2]; binds [3].

For B2, the “fold increase in affinity with GW1929 against no ligand” value [4] was 12 fold, the “log α (ratio of cofactor affinities with and without saturating ligand)” value [5] was 0.14 and the “log α (ratio of cofactor affinities with and without saturating ligand)” value [6] was 0.52.

B3 showed a Kd [7] of 1.3 µM, a Kd [8] of 37 µM and a Kd [9] of 1.3 µM. For the same binder, the Kd [10] was 6.1 µM, the Kd [11] was 25 µM and the Kd [12] was 2 µM. For the same binder, the Kd [13] was 5.7 µM, the Kd [14] was 6.7 µM and the Kd [15] was 0.44 µM. The Kd [16] was 0.72 µM, the Kd [17] was 1.2 µM and the Kd [18] was 4.7 µM. The Kd [19] was 5 µM and the Kd [20] was 6.2 µM.

B4: binds [21].

With B5 the “fold decrease in affinity with GW1929 against no ligand” value [4] was 5 fold, the “fold increase in affinity with GW1929 against no ligand” value [22] was 5 fold and the “fold decrease in affinity with rosiglitazone against no ligand” value [23] was roughly 4 fold. For the same binder, the “fold increase in affinity with rosiglitazone against no ligand” value [24] was roughly 3 fold.
